B1: DGL575 (bispecific antibody, V domains shown)
V domain 1: QVQLVESGGGLVQAGGSLRLSCAASRSISSFNEMAWYRQAPGEQRELVATIVSTVGFTNYADSVKGRFTISRDNAKNTVYLQMNSLKAEDTAVYYCNARRISTDYWGQGTQVTVEP
V domain 2: QVQLQESGPGLVKPSQTLSLTCTVSGGSITTNYYYWSWIRQPPGKGLEWMGAIAYSGSTYYSPSLKSRTSISRDTSKNQFTLQLSSVTPEDTAVYYCASGINFYSNYPTLNEYDYWGQGTQVTVEP
B2: DGL574 (bispecific antibody, V domains shown)
V domain 1: B1 V domain 1
V domain 2: QVQLVESGGGLVQAGGSLRLSCAASGRTFSRYRMGWFRQAPGKEREFVAAITKSGATTYDADSVKGRFTISRDNAKNTLYLQMNSLKPEDTAVYYCAASYHSNWWPKNADEYAYWGQGTQVTVEP
B3: DGL441 (bispecific antibody, human IgG1, lambda)
heavy 1: not shown
heavy 2: EVQLVESGGGLVQPGGSLRLSCAASGFTFSTYDMHWVRQATGKGLEWVSLIDTAGDTYYPDSVKGRFTISRENAKNSLYLQMNSLRAGDTAVYYCAREGWGYFDYWGQGALVTVSSASTKGPSVFPLAPSSKSTSGGTAALGCLVKDYFPEPVTVSWNSGALTSGVHTFPAVLQSSGLYSLSSVVTVPSSSLGTQTYICNVNHKPSNTKVDKKVEPKSCDKTHTCPPCPAPEAAGAPSVFLFPPKPKDTLMISRTPEVTCVVVDVSHEDPEVKFNWYVDGVEVHNAKTKPREEQYNSTYRVVSVLTVLHQDWLNGKEYKCKVSNKALPAPIEKTISKAKGQPREPQVCTLPPSRDELTKNQVSLSCAVKGFYPSDIAVEWESNGQPENNYKTTPPVLDSDGSFFLVSKLTVDKSRWQQGNVFSCSVMHEALHNRFTQKSLSLSPG
light: QSALTQPPSVSGSPGQSVTISCTGTSSDVGSYNRVSWYQQPPGTAPKLMIYEVSNRPSGVPDRFSGSKSGNTASLTISGLQAEDEADYYCSLYTGSSTVVFGGGTKVTVLGQPKAAPSVTLFPPSSEELQANKATLVCLISDFYPGAVTVAWKADSSPVKAGVETTTPSKQSNNKYAASSYLSLTPEQWKSHRSYSCQVTHEGSTVEKTVAPTECS
B4: DGL448 (bispecific antibody, human IgG1, lambda)
heavy 1: not shown
heavy 2: B3 heavy 2
light: B3 light
B5: DGL533 (bispecific antibody, V domains shown)
V domain 1: EVQLVESGGGLVQPGGSLTLSCTASGFRFSDRSMGWYRQAPGKQRELVAAITVGGSTNYADSVKGRFTISRDNAKNTVYLQMNSLKPEDTALYYCNRRYPPDDYWGQGTQVTVEP
V domain 2: QVQLVESGGGLVQAGGSLRLSCAASGRTFSSYAMGWFRQAPGKEREFVSAISWSGLSTYYVESVQGRFTISRDNAKNTVYLQMNSLKPEDTAVYYCAASRIYTNYVARSYEYDDWGQGTQVTVEP
B6: DGL504 (bispecific antibody, V domains shown)
V domain 1: EVQLVESGGGLVQAGGSLRLSCAASGLTFRNYAMAWFRQAPGKEREFVAGITWGGGLTHYVDSVKGRFTISRDNGKNTVYLQMNSLKSEDTAVYYCAGKTQGSTWYHLTPDGYDYWGQGTQVTVEP
V domain 2: B5 V domain 2
B7: DGL541 (bispecific antibody, V domains shown)
V domain 1: QVQLVESGGGLVQAGGSLRLSCAASGRTFRTYAMGWFRQAPGKDREVVGIAAWKVASTYYVDYGDSVRGRFTISRDDAKSTVYLQMNNLMPEDTAVYYCAAGAFRTDWRSYAYWGQGTQVTVEP
V domain 2: B5 V domain 2
B8: DGL478 (bispecific antibody, V domains shown)
V domain 1: QVQLVESGGGLVQAGGSLRLSCAAPGRYAVGWFRQAPGKEYEFVAAITVSGGSKYYEDSVKGRFAISRDNAKNTVYLQMNSLKAEDTAVYYCAARTPKFGSGWYNRRGEYDYWGQGTQVTVEP
V domain 2: QVQLVESGGGLVQAGGSLRLSCAASGRIFSAYRMGWFRQAPGKEREFVAGITWRGQTTYYAASVKGRFTISKDNAKKTVYLQMNSLKPEETAVYYCAVETNGLGRWDRPSEYDYWGQGTQVTVEP
B9: DGL552 (bispecific antibody, V domains shown)
V domain 1: QVQLVESGGGLVQAGGSLRLSCAASGRTFGTYAMGWFRQAPGKERDFVARISNSGAFTHYADSVKGRFTISRDNAKNTVYLHMNSLENGDTAAYYCVATRGTNSAYYTRSTMYEYWGQGTQVTVEP
V domain 2: B8 V domain 2
B10: DGL445 (bispecific antibody, human IgG1, lambda)
heavy 1: not shown
heavy 2: QVQLVQPGAEVKKPGASVKVSCKASGYTFTGYYMHWVRQAPGQGLEWMGWINPKSGGTNYAQKFQGRVTMTRDTSISTAYMELTRLRSDDTAVYYCARDQGYGDYVLKHWGQGTLVTVSSASTKGPSVFPLAPSSKSTSGGTAALGCLVKDYFPEPVTVSWNSGALTSGVHTFPAVLQSSGLYSLSSVVTVPSSSLGTQTYICNVNHKPSNTKVDKKVEPKSCDKTHTCPPCPAPEAAGAPSVFLFPPKPKDTLMISRTPEVTCVVVDVSHEDPEVKFNWYVDGVEVHNAKTKPREEQYNSTYRVVSVLTVLHQDWLNGKEYKCKVSNKALPAPIEKTISKAKGQPREPQVCTLPPSRDELTKNQVSLSCAVKGFYPSDIAVEWESNGQPENNYKTTPPVLDSDGSFFLVSKLTVDKSRWQQGNVFSCSVMHEALHNRFTQKSLSLSPG
light: SYVLTQPPSVSVAPGQTARITCGGDNIGSKSVHWYQQKPGQAPVPVVYDDSDRPSGIPERFSGSNSGNTATLTISRVEAGDEADYYCQVWDSSSDHVVFGGGTKLTVLGQPKAAPSVTLFPPSSEELQANKATLVCLISDFYPGAVTVAWKADSSPVKAGVETTTPSKQSNNKYAASSYLSLTPEQWKSHRSYSCQVTHEGSTVEKTVAPTECS

Target: human IL-12 receptor (IL-12Rβ1 and IL-12Rβ2) on HEK-Blue IL-12 cells (human, UniProt P42701 24-662; Q99665 24-862)
Sequence (Q99665 24-862, chain 2 of 2, other chains not shown): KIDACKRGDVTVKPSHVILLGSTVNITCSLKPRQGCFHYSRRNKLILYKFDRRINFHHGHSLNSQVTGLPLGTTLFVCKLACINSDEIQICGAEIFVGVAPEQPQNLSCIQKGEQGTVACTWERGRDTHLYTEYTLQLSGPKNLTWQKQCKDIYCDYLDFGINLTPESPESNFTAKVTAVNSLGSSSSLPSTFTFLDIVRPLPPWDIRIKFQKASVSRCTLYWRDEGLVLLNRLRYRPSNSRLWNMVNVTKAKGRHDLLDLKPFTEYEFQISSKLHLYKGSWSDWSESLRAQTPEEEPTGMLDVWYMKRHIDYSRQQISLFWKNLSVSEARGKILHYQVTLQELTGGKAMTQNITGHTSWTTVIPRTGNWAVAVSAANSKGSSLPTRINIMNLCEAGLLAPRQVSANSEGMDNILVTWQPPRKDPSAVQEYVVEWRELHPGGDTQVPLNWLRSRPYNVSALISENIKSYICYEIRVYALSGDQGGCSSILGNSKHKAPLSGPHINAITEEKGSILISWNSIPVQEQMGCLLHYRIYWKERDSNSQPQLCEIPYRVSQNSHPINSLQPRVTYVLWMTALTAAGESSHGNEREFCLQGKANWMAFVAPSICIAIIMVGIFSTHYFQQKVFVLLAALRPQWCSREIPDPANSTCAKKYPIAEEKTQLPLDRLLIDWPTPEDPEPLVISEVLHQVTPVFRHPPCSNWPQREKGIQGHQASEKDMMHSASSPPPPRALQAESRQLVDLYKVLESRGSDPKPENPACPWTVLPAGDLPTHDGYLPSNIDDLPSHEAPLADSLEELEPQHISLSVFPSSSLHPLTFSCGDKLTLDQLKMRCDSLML
Test: cell-based or functional assay

Binder	EC50	Max Absorbance
B1	> 100 nM	0.43
B2	> 100 nM	0.41
B3	4e-11 M (implied)	0.45
B4	1e-09 M (implied)	0.39
B5	> 100 nM	0.42
B6	> 100 nM	0.41
B7	–	0.37
B8	4e-09 M (implied)	0.4
B9	> 100 nM	0.4
B10	> 100 nM	0.42
